Measurements reported in paper PMC3285272 (Cell, 2012).

Target: T1, full-length βδ-COP dimer (R. norvegicus | B. taurus, UniProt P23514 1-953; P53619 1-511)
T1 sequence (looked up) 1: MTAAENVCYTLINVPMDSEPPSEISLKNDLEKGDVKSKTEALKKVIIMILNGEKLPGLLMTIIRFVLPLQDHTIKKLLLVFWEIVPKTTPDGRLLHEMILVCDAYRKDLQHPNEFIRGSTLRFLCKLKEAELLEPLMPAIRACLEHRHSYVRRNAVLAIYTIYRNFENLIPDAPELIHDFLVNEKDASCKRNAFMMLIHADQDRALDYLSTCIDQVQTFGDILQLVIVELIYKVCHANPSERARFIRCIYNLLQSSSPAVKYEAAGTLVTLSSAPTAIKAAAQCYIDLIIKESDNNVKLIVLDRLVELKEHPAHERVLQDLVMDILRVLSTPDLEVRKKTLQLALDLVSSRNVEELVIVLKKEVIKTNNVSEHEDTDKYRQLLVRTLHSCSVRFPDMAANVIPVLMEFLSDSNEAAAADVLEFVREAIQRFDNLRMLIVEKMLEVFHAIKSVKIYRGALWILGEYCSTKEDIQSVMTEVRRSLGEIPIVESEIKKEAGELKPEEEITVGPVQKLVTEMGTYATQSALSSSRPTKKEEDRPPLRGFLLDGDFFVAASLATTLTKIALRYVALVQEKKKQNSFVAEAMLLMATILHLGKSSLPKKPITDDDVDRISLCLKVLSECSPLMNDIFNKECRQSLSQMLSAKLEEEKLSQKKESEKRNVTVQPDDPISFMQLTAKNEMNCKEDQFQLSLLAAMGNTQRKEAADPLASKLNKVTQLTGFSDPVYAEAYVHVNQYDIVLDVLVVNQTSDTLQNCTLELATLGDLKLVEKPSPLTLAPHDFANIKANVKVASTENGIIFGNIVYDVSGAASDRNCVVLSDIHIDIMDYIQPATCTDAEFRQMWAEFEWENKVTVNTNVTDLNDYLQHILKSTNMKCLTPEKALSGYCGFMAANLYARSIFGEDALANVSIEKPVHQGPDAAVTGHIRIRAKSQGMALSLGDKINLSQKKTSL
T1 sequence (looked up) 2: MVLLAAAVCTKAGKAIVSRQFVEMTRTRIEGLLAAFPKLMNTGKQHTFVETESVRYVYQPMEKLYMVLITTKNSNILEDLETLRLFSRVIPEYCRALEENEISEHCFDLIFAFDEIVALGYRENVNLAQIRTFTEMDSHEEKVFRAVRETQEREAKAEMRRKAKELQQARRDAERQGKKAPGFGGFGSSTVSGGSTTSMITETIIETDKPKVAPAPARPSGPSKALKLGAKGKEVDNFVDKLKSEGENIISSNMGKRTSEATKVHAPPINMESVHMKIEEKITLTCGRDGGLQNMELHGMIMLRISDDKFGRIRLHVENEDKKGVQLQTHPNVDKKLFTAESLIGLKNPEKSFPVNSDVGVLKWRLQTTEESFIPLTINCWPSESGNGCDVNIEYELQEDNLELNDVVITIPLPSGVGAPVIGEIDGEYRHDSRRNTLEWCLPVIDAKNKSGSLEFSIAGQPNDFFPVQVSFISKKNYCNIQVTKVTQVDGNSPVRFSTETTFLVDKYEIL
Experiment: pull-down

B1: S. cerevisiae Arf1 (residues 18–181) with a C-terminal GST tag (domain or fragment, UniProt P11076 18-181, looked up)
chain: MRILMVGLDGAGKTTVLYKLKLGEVITTIPTIGFNVETVQYKNISFTVWDVGGQDRIRSLWRHYYRNTEGVIFVVDSNDRSRIGEAREVMQRMLNEDELRNAAWLVFANKQDLPEAMSAAEITEKLGLHSIRNRPWFIQATCATSGEGLYEGLEWLSNSLKNST
- binding result: binds
